Values joined by “and” are separate entries in the source; they are usually repeats but may differ in a detail not shown here. Identical values can stand only once.
Target: the molecule itself
Assay: cryo-EM structure

B1: human polymerase theta helicase domain (PolθH, residues 2–894) (domain or fragment, UniProt O75417 2-894, looked up)
chain: NLLRRSGKRRRSESGSDSFSGSGGDSSASPQFLSGSVLSPPPGLGRCLKAAAAGECKPTVPDYERDKLLLANWGLPKAVLEKYHSFGVKKMFEWQAECLLLGQVLEGKNLVYSAPTSAGKTLVAELLILKRVLEMRKKALFILPFVSVAKEKKYYLQSLFQEVGIKVDGYMGSTSPSRHFSSLDIAVCTIERANGLINRLIEENKMDLLGMVVVDELHMLGDSHRGYLLELLLTKICYITRKSASCQADLASSLSNAVQIVGMSATLPNLELVASWLNAELYHTDFRPVPLLESVKVGNSIYDSSMKLVREFEPMLQVKGDEDHVVSLCYETICDNHSVLLFCPSKKWCEKLADIIAREFYNLHHQAEGLVKPSECPPVILEQKELLEVMDQLRRLPSGLDSVLQKTVPWGVAFHHAGLTFEERDIIEGAFRQGLIRVLAATSTLSSGVNLPARRVIIRTPIFGGRPLDILTYKQMVGRAGRKGVDTVGESILICKNSEKSKGIALLQGSLKPVRSCLQRREGEEVTGSMIRAILEIIVGGVASTSQDMHTYAACTFLAASMKEGKQGIQRNQESVQLGAIEACVMWLLENEFIQSTEASDGTEGKVYHPTHLGSATLSSSLSPADTLDIFADLQRAMKGFVLENDLHILYLVTPMFEDWTTIDWYRFFCLWEKLPTSMKRVAELVGVEEGFLARCVKGKVVARTERQHRQMAIHKRFFTSLVLLDLISEVPLREINQKYGCNRGQIQSLQQSAAVYAGMITVFSNRLGWHNMELLLSQFQKRLTFGIQRELCDLVRVSLLNAQRARVLYASGFHTVADLARANIVEVEVILKNAVPFKSARKAVDEEEEAVEERRNMRTIWVTGRKGLTEREAAALIVEEARMILQQDLVEM
Q: For B1, which “stoichiometry N” value is on record?
A: The value was 4 and 2.
